By Kd is commonly meant the constant that tells how readily two partners part at equilibrium. Lower therefore signals higher affinity.

In patent publication US20260055153A1 (published 2026) one finds Kd data, which are given here for one molecule.

The experiment addresses R1-E5. As to the kind of experiment: BLI. (BLI is a label-free optical method that tracks binding on a fibre tip over time.)

B1: IL-15Rβ (receptor)
chain: AVNGTSQFTCFYNSRANISCVWSQDGALQDTSCQVHAWPDRRRWNQTCELLPVSQASWACNLILGAPDSQKLTTVDIVTLRVLCREGVRWRVMAIQDFKPFENLRLMAPISLQVVHVETHRCNISWEISQASHYFERHLEFEARTLSPGHTWEEAPLLTLKQKQEWICLETLTPDTQYEFQVRVKPLQGEFTTWSPWSQPLAFRTKPAALGKD
For the molecule B1, the Kd was found to be 43 nM.
